Results as given in paper PMC7534368.

Tests used:
[1] = molecular target: SARS-CoV-2 spike ectodomain with the wild-type sequence (S-WT), aa 15-1,213, with C-terminal thrombi (SARS-CoV-2 | bacteriophage T4) (UniProt P0DTC2); assay: AUC
[2] = molecular target: SARS-CoV-2 spike ectodomain, prefusion trimer-stabilized form (S-2P), aa 15-1,213, with C-terminal t (SARS-CoV-2 | bacteriophage T4) (UniProt P0DTC2); assay: cryo-EM structure

Substance | stoichiometry N [1] | stoichiometry N [2]
SARS-CoV-2 spike ectodomain with the wild-type sequence (S-WT), aa 15-1,213, with C-terminal thrombi (from UniProt P0DTC2 15-1213) (domain or fragment) | 3 | 
SARS-CoV-2 spike ectodomain, prefusion trimer-stabilized form (S-2P), aa 15-1,213, with C-terminal t (from UniProt P0DTC2 15-1213) (domain or fragment) |  | 3
